Source: doi:10.1101/2025.10.04.680454

B1: human IL-7Rα extracellular domain (residues 37-231) with a C-terminal C-tag (domain or fragment)
chain: DYSFSCYSQLEVNGSQHSLTCAFEDPDVNITNLEFEICGALVEVKCLNFRKLQEIYFIETKKFLLIGKSNICVKVGEKSLTCKKIDLTTIVKPEAPFDLSVVYREGANDFVVTFNTSHLQKKYVKVLMHDVAYRQEKDENKWTHVNLSSTKLTLLQRKLQPAAMYEIKVRSIPDHYFKGFWSEWSPSYYFRTPEI
B2: human IL-7Rα fused to a human IgG single-chain Fc tag (Fc fusion)
chain: ESGYAQNGDLEDAELDDYSFSCYSQLEVNGSQHSLTCAFEDPDVNITNLEFEICGALVEVKCLNFRKLQEIYFIETKKFLLIGKSNICVKVGEKSLTCKKIDLTTIVKPEAPFDLSVVYREGANDFVVTFNTSHLQKKYVKVLMHDVAYRQEKDENKWTHVNLSSTKLTLLQRKLQPAAMYEIKVRSIPDHYFKGFWSEWSPSYYFRTPEINNSSGEMD

Experiments:
[1] = target: Mb-1 (parental minibinder), N-terminal polyhistidine tag; experiment: SPR
[2] = target: Mb-4 (parental minibinder), N-terminal polyhistidine tag; experiment: SPR
[3] = target: all four evolved minibinders (purified proteins); experiment: SPR
[4] = target: evolved Mb-1 (affinity matured variant), N-terminal polyhistidine tag; experiment: SPR
[5] = target: Mb-1 A14V displayed on the yeast cell surface (minibinder-HA-AGA2); experiment: flow cytometry on cells
[6] = target: Mb-1 P29S displayed on the yeast cell surface (minibinder-HA-AGA2); experiment: flow cytometry on cells

| Binder | Kd [1] [nM] | Kd [2] [nM] | Kd [3] [nM] | Kd [4] [nM] | Δ-log10[KD] against parental Mb-1 [5] | Δ-log10[KD] against parental Mb-1 [6] |
| --- | --- | --- | --- | --- | --- | --- |
| B1 | > 1000 | 7.8 | 0.56 to 34 | 2.1 |  |  |
| B2 |  |  |  |  | 1.18 | 0.03 |
